Target: TGF-beta receptor(s) on CCL64 mink lung epithelial cells (mink (endogenous in CCL64))
Assay: radioligand binding

Substance: Human TGF-beta (type 1), 125I-labeled (ligand)
- Kd: 8.3 pM
- increase of specific binding with 100 ug/ml heparin over no heparin: 46%
- specific binding, cpm of the 100% value (without heparin): 325 cpm

— PMC2115487
